# In patent publication US20050227296A1 (GENERAL HOSPITAL CORPORATION A MASSACHUSETTS, published 2005):
# B1: recombinant CD11a A domain (receptor, human, UniProt P20701 153-332, looked up)
# chain: GNVDLVFLFDGSMSLQPDEFQKILDFMKDVMKKLSNTSYQFAAVQFSTSYKTEFDFSDYVKRKDPDALLKHVKHMLLLTNTFGAINYVATEVFREELGARPDATKVLIIITDGEATDSGNIDAAKDIIRYIIGIGKHFQTKESQETLHKFASKPASEFVKILDTFEKLKDLFTELQKKIY
# notes: domain: A domain; Expressed as a GST fusion in E. coli, used as such or released by thrombin; also called r11aA; rCD11a A-domain
# Target: T1, complement iC3b on erythrocytes (EAiC3b) (human, UniProt P01024 23-667; P01024 749-1303; P01024 1321-1663, limits assumed)
# T1 construct: iC3b is a multi-chain fragment of C3; also called human iC3b
# T1 sequence (P01024 23-667 limits assumed, chain 1 of 3): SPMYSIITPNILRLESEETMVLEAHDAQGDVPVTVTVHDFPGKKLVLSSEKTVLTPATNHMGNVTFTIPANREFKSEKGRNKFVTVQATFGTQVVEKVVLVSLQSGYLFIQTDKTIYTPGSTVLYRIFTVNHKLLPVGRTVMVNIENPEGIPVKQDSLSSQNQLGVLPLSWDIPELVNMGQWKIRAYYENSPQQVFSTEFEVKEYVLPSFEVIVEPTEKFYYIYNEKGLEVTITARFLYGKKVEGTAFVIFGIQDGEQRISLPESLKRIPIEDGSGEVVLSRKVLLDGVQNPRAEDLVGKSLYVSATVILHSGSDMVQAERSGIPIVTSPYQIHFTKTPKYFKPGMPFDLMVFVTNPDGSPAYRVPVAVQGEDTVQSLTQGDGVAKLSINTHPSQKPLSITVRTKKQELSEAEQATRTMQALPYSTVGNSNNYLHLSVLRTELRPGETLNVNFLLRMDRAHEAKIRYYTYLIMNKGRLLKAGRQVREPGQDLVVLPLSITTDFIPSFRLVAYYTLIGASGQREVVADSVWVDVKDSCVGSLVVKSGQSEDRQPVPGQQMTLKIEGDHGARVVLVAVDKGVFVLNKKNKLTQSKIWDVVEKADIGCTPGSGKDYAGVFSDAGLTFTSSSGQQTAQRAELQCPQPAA
# T1 sequence (P01024 749-1303 limits assumed, chain 2 of 3): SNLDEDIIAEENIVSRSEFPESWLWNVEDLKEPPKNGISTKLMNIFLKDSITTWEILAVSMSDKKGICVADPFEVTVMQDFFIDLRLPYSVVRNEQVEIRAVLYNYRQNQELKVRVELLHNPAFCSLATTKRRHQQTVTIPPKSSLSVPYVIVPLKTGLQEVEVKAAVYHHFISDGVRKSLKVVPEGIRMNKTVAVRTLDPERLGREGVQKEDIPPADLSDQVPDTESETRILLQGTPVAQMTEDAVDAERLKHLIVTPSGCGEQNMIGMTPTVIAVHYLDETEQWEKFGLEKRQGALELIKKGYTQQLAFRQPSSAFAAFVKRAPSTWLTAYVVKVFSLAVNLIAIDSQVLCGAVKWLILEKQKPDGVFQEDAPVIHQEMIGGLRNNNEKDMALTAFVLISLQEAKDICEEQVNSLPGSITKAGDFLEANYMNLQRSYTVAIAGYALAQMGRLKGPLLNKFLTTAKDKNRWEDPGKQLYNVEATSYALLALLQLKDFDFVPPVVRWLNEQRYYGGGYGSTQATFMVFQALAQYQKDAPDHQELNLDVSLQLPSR
# T1 sequence (P01024 1321-1663 limits assumed, chain 3 of 3): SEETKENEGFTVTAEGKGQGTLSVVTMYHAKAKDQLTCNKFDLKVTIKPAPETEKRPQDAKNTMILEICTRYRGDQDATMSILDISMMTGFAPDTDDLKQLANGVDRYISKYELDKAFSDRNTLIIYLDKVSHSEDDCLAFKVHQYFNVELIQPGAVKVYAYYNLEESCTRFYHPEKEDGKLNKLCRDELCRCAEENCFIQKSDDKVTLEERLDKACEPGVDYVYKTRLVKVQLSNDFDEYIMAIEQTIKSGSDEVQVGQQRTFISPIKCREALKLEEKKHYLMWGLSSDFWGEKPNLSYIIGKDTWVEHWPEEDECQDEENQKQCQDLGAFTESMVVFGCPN
# Assay: fluoresceinated EAiC3b on immobilized protein
# Description: For the inhibition studies, E were preincubated with each recombinant protein or pure peptide in the presence of 2% BSA for 5 minutes at RT and added to wells coated with immobilized protein or peptide without washing, unless otherwise indicated. At the end of the binding reactions, wells were washed, examined briefly by light microscopy then solubilized with 1% SDS-0.2 N NaOH. Fluorescence was quantified (excitatory wavelength, 490 nm, emission wavelength, 510 nm) using a SLM 8000 fluorometer (SLM Instruments, Urbana, Ill.). In experiments where the effects of individual divalent cations were measured, Ca²⁺ and Mg²⁺ were replaced with metal-free buffers or with buffers containing each cation at 1. MM, unless otherwise indicated. The effect of temperature was evaluated in the presence of 1 mM MnCl₂ at 37° C. and at 4° C.
binder,measurement,value
B1,binding result,no binding
